Reference: paper doi:10.1101/2024.09.03.610921

Target: RAGE^23-341-His-FLAG (extracellular part of RAGE) (human (cDNA from HEK293T cells)) (UniProt Q15109)
Assay: pull-down

Sequence of RAGE^23-341-His-FLAG (extracellular part of RAGE) (human (cDNA from HEK293T cells)) (Q15109 23-341): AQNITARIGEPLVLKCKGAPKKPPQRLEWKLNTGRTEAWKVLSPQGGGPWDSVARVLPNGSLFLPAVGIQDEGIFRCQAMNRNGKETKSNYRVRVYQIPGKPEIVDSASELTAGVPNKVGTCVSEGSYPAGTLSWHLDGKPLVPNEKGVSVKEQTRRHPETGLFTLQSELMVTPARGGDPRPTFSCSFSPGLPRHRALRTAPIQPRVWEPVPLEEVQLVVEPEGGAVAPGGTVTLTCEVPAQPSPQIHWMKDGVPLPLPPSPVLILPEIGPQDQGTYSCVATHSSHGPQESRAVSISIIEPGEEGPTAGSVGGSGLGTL

fold of histone complex precipitated, against RAGE^124-341: 2.4 fold
Substance: core histone complex purified from bovines
